Test results published in patent US20100143440A1, “UL97 INHIBITORS FOR TREATMENT OF PROLIFERATIVE DISORDERS” (The UAB Research Foundation, priority 2007, published 2010).
Substitutions are numbered along the chain they refer to. Numbers in names are those of the source. Like-named read-outs stand apart in the source and are kept apart here.

What was measured:
[1] = biological target: RB tumor suppressor (retinoblastoma protein), endogenous in infected human foreskin fibroblast (HFF) cells (UniProt P06400)
GS strain of HHV-6A = assay: Efficacy against HHV-6A in HSB-2 cells with reduced serum; type: cell-based; conditions: for EC50: HSB2, HHV-6A in HSB-2 cells, read-out: EC50
Experimental: The activity of MBV was evaluated against the GS strain of HHV-6A in HSB-2 cells with reduced serum to slow the growth of lymphocytes.

[2] = biological target: T1, RB tumor suppressor (retinoblastoma protein), endogenous in infected human foreskin fibroblast (HFF) cells, P06400
T1 chain: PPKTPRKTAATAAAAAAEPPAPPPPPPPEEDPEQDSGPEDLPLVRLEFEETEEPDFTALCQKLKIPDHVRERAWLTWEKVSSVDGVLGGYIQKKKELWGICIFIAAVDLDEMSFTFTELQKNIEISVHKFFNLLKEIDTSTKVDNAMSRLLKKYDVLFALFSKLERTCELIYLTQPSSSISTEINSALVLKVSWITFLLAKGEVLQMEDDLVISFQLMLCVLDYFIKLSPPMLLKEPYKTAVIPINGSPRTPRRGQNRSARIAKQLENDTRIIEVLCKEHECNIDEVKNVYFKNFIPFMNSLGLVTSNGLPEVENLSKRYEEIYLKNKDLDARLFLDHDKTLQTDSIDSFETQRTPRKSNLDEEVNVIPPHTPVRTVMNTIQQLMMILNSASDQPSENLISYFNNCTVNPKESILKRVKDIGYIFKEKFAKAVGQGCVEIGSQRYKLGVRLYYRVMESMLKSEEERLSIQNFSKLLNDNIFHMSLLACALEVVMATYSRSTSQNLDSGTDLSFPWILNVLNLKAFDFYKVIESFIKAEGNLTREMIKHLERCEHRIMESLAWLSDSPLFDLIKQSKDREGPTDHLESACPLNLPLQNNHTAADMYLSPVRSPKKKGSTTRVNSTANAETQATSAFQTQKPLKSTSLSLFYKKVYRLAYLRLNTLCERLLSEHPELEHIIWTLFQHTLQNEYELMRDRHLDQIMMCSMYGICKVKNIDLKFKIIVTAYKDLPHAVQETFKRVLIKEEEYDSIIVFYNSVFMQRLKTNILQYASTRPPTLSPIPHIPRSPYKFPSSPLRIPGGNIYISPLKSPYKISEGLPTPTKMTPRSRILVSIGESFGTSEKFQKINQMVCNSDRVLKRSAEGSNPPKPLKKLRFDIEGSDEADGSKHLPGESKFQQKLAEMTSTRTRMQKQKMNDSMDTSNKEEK

[3] = biological target: T2, epitope tagged (V5) UL89 fusion protein (negative control) (UniProt P16732 1-674); assay: pull-down of recombinant Rb by V5-immunoprecipitated protein on Protein A sepharose beads, immunoblot for Rb
T2 construct: Negative control in the Rb pull-down; also called pUL89
T2 sequence: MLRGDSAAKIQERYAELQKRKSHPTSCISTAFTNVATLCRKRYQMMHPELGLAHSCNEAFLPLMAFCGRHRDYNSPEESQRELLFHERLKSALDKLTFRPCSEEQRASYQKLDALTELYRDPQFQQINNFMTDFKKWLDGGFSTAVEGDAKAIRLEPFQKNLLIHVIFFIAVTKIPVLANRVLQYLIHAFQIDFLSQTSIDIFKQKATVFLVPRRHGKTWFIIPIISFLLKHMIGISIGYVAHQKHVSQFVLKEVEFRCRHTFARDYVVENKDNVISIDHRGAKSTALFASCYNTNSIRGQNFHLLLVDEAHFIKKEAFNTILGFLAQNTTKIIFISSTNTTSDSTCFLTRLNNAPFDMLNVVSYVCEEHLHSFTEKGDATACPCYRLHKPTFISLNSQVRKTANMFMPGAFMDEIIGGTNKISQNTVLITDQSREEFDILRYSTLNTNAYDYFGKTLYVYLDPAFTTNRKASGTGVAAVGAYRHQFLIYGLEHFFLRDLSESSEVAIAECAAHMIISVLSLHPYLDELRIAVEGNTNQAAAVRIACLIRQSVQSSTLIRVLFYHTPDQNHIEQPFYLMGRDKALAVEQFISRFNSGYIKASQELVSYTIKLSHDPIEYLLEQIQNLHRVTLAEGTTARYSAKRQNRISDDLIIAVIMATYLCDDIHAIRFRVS

[4] = biological target: T3, epitope tagged (V5) UL104 fusion protein (negative control) (UniProt P16735 1-697); assay: as above
T3 construct: Negative control in the Rb pull-down; also called pUL104
T3 sequence: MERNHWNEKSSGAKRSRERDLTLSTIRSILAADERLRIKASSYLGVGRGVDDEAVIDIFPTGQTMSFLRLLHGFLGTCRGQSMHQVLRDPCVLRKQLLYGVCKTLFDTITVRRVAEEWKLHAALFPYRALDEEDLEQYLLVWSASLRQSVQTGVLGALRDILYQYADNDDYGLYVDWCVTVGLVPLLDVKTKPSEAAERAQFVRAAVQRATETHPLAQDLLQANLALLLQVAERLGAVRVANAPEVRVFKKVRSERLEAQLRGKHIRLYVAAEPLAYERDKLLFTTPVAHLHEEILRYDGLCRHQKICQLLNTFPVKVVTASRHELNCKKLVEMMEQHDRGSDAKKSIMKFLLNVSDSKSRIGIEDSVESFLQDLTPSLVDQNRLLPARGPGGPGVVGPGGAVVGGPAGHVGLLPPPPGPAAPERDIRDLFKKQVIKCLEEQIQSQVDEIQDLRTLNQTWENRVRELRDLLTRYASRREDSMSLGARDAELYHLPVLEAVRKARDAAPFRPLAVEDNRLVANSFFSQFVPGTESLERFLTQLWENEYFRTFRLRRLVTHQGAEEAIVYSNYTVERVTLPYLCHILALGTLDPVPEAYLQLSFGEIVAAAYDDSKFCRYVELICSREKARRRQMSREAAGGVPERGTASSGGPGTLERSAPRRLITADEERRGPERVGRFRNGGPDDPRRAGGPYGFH

Q: For pUL97 K355M of recombinant virus RC314, which “RB stabilization, western blot of lysates 24 hours after infection” value [1] is on record?
A: This did not occur when cells were infected with the K355M mutant

Q: And the “phosphorylation of RB on serine 780, western blot with specific antisera” value [1]?
A: The phosphorylation of serine 780 was reduced in the K355M and C151G mutants relative to the wild-type virus and resembled levels seen in uninfected cells

Q: For `Nc1ccn(C[C@@H](CO)OCP(=O)(O)O)c(=O)n1` [cidofovir], which “EC50 values under conditions of reduced serum” value (GS strain of HHV-6A; GS strain of HHV-6A, HSB-2 cells, reduced serum) is on record?
A: unaffected

Q: What about the EC50 (GS strain of HHV-6A; 2% FBS) of the same molecule?
A: 1.1 µM

Q: And the EC50 (GS strain of HHV-6A; 5% FBS)?
A: 1.2 µM

Q: What about the EC50 (GS strain of HHV-6A; 10% FBS) of the same molecule?
A: 1.4 µM

B1: pUL97 of the wild-type virus HB5 (HCMV BAC strain) (protein)
chain: MSSALRSRARSASLGTTTQGWDPPPLRRPSRARRRQWMREAAQAAAQAAVQAAQAAAAQVAQAHVDENEVVDLMADEAGGGVTTLTTLSSVSTTTVLGHATFSACVRSDVMRDGEKEDAASDKENLRRPVVPSTSSRGSAASGDGYHGLRCRETSAMWSFEYDRDGDVTSVRRALFTGGSDPSDSVSGVRGGRKRPLRPPLVSLARTPLCRRRVGGVDAVLEENDVELRAESQDSAVASGPGRIPQPLSGSSGEESATAVEADSTSHDDVHCTCSNDQIITTSIRGLTCDPRMFLRLTHPELCELSISYLLVYVPKEDDFCHKICYAVDMSDESYRLGQGSFGEVWPLDRYRVVKVARKHSETVLTVWMSGLIRTRAAGEQQQPPSLVGTGVHRGLLTATGCCLLHNVTVHRRFHTDMFHHDQWKLACIDSYRRAFCTLADAIKFLNHQCRVCHFDITPMNVLIDVNPHNPSEIVRAALCDYSLSEPYPDYNERCVAVFQETGTARRIPNCSHRLRECYHPAFRPMPLQKLLICDPHARFPVAGLRRYCMSELSALGNVLGFCLMRLLDRRGLDEVRMGTEALLFKHAGAACRALENGKLTHCSDACLLILAAQMSYGACLLGEHGAALVSHTLRFVEAKMSSCRVRAFRRFYHECSQTMLHEYVRKNVERLLATSDGLYLYNAFRRTTSIICEEDLDGDCRQLFPE
Q: For B1, which “RB stabilization, western blot of lysates 24 hours after infection” value [2] is on record?
A: Cells infected with the wild-type virus stabilized RB

B2: pUL97 C151G of recombinant virus RC295 (protein)
chain: B1 chain with C151G
Q: With B2 as the molecule, how does the “RB accumulation, western blot of lysates 24 hours after infection” value [2] read?
A: The accumulation of RB was reduced in the C151G mutant

Q: What about the “phosphorylation of RB on serine 780, western blot with specific antisera” value [2] of the same molecule?
A: The phosphorylation of serine 780 was reduced in the K355M and C151G mutants relative to the wild-type virus and resembled levels seen in uninfected cells

B3: recombinant protein consisting of the carboxyl terminus of Rb fused to the maltose binding protein (Cell Signaling Technology) (other)
chain: DQIMMCSMYGICKVKNIDLKFKIIVTAYKDLPHAVQETFKRVLIKEEEYDSIIVFYNSVFMQRLKTNILQYASTRPPTLSPIPHIPRSPYKFPSSPLRIPGGNIYISPLKSPYKISEGLPTPTKMTPRSRILVSIGESFGTSEKFQKINQMVCNSDRVLKRSAEGSNPPKPLKKLRFDIEGSDEADGSKHLPGESKFQQKLAEMTSTRTRMQKQKMNDSMDTSNKEEK
notes: domain: carboxyl terminus; Bought fusion protein; also called recombinant Rb; recombinant Rb protein
Q: Does B3 bind [3]?
A: no binding

Q: Does B3 bind [4]?
A: no binding
